This is an account of results in US5616558A, “Medicaments comprising glicentin as active ingredient” (Nisshin Flour Milling Co., Ltd., priority 1992, dated 1997).

For one data set, the system named is arginine loaded dogs. Put plainly: infusion into the pancreatic artery of arginine loaded dogs; plasma insulin, plasma glucagon and blood glucose measured. It is filed as in vivo, mongrel dogs. The note with it: 100 pmol or 400 pmol glicentin solution infused into the pancreatic artery for 10 minutes.
Another data set has as its system male MALB/c mice. The experiment in a line: intraperitoneal administration to mice, observation of appearance. It is filed as in vivo. The conditions noted are these: 10 mg/kg intraperitoneally, male MALB/c mice (6 weeks age).

Description for arginine loaded dogs: Healthy mongrel dogs weighing 13 to 17 kg were subjected to the test after an overnight fast (A. Ohneda et al., Hotre. Metab. Res., 9, 447-452 (1977)).
The animals were anesthetized with sodium pentobarbital (Nembutal®) and their abdomens were opened. […] After the operation was completed, saline solution containing 0.5% arginine was infused into the pancreatic artery at a constant rate of 2 ml/min through the cannula using an infusion pump. […] 4 ml portions of blood samples for hormone assay were collected at various intervals into a glass tube containing 1000 KIU aprotinine and 10 mg EDTA.
The plasma insulin was measured in accordance with a known method mentioned in C.
The blood glucose was measured for blood drawn from the femoral artery by the glucose oxidase method using a test kit for the determination of blood glucose (available from Wako Pure Chemical Industries, Japan under the trade name of "Glucose B-Test Wako").

B1: glicentin: peptide comprising 69 amino acid residues, major component of gut glucagon-like immunoreactants; produced by recombinant DNA in E. coli (protein)
chain: RSLQDTEEKSRSFSASQADPLSDPDQMNEDKRHSQGTFTSDYSKYLDSRRAQDFVQWLMNTKRNRNNIA
Regarding B1, the “insulin secretion (plasma insulin, IRI)” value in the data set on arginine loaded dogs (0.5% arginine infusion, anesthetized dogs) is “stimulates insulin secretion”. Moreover, the “glucagon level (IRG(G 21))” value in the data set on arginine loaded dogs (antiserum G 21 specific for C-terminal portion of glucagon) is recorded as “not increased”. Also, in the data set on arginine loaded dogs (blood from femoral artery, glucose oxidase method), the blood glucose levels entry is “no change”. In the data set with male MALB/c mice, the change in appearance entry is “no change in appearance”.
